{"source": "patent US20160136234A1", "test_in_all_cases": "cell-based or functional assay", "key": {"LKB1 (h) (human)": {"target": "T1, LKB1 (h) (human) (UniProt Q15831)", "T1 sequence (looked up)": "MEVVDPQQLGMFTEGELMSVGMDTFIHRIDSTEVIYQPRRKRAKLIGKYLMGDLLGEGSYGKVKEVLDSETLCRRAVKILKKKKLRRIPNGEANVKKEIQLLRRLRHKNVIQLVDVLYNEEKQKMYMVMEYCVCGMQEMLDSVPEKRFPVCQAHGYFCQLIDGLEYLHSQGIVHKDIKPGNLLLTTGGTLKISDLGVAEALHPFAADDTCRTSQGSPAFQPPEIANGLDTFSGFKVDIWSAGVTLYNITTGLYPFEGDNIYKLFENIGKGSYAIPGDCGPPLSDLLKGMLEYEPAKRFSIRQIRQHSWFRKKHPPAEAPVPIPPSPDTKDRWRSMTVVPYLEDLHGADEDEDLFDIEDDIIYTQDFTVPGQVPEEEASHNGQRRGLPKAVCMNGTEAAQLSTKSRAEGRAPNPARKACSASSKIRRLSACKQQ"}, "Haspin (h) (human)": {"target": "T2, Haspin (h) (human) (UniProt Q8TF76)", "T2 sequence (looked up)": "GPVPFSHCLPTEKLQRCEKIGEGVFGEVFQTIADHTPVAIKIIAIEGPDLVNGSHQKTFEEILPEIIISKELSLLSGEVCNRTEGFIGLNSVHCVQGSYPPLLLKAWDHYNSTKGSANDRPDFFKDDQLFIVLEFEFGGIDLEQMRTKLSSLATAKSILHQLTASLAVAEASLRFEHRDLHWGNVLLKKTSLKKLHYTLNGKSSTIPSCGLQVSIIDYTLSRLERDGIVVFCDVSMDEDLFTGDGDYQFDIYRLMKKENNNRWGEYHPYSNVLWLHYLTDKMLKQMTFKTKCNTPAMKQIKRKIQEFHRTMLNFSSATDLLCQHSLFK"}, "PKD2 (h) (human)": {"target": "T3, PKD2 (h) (human) (UniProt Q9BZL6)", "T3 sequence (looked up)": "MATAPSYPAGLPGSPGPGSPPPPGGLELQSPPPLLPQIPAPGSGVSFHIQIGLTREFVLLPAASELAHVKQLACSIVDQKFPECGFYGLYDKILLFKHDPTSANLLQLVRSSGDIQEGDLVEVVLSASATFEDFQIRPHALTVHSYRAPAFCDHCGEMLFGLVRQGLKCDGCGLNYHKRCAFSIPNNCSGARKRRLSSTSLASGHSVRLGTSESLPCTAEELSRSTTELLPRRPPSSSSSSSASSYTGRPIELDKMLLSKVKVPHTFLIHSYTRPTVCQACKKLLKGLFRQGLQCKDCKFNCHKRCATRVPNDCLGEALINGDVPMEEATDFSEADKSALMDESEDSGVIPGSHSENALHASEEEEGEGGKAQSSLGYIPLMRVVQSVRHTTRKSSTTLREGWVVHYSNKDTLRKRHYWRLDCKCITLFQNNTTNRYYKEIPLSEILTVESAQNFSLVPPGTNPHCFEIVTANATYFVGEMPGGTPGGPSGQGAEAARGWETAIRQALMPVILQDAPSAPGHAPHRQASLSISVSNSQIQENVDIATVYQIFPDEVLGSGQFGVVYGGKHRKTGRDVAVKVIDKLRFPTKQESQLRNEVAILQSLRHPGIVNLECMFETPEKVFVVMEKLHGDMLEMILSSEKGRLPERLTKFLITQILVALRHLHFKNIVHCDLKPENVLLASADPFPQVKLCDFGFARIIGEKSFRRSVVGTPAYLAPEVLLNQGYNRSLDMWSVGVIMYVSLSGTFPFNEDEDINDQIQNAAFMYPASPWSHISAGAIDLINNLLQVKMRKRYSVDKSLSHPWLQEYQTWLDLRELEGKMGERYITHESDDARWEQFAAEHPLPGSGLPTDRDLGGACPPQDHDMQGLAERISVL"}, "SAPK2a (h) (human)": {"target": "SAPK2a (h) (human) (UniProt Q16539)", "sequence (Q16539 whole entry)": "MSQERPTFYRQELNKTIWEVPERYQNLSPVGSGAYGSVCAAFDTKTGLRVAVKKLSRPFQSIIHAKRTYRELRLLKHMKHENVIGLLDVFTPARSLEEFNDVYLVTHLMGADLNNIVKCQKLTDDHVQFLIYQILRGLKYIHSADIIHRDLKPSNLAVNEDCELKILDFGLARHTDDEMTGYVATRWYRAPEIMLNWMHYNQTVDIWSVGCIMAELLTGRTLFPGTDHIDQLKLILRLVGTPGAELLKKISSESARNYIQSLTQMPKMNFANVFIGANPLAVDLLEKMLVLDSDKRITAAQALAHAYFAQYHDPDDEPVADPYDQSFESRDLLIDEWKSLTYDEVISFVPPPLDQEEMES"}, "TBK1 (h) (human)": {"target": "T4, TBK1 (h) (human) (UniProt Q9UHD2)", "T4 sequence (looked up)": "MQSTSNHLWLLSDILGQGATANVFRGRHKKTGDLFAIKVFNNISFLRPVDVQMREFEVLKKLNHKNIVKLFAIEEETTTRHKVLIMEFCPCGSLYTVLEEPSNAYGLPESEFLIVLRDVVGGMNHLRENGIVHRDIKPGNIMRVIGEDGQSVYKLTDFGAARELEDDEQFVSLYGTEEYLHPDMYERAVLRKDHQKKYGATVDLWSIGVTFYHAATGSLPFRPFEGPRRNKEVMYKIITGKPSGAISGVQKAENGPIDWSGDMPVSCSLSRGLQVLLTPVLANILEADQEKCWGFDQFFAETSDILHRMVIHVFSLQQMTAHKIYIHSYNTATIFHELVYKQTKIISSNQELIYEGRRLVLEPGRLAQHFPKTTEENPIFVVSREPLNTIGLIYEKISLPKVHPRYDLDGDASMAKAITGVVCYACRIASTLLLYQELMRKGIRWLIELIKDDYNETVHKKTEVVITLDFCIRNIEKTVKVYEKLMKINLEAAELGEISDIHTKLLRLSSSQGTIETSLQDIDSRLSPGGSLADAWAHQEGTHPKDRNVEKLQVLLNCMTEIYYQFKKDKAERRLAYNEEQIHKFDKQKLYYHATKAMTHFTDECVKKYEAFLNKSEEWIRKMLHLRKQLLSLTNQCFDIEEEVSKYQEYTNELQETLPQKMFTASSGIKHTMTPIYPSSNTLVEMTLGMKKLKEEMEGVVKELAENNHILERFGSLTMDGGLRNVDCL"}, "mTOR (h) (human)": {"target": "mTOR (h) (human) (UniProt P42345)", "sequence (P42345 1362-2549 limits assumed)": "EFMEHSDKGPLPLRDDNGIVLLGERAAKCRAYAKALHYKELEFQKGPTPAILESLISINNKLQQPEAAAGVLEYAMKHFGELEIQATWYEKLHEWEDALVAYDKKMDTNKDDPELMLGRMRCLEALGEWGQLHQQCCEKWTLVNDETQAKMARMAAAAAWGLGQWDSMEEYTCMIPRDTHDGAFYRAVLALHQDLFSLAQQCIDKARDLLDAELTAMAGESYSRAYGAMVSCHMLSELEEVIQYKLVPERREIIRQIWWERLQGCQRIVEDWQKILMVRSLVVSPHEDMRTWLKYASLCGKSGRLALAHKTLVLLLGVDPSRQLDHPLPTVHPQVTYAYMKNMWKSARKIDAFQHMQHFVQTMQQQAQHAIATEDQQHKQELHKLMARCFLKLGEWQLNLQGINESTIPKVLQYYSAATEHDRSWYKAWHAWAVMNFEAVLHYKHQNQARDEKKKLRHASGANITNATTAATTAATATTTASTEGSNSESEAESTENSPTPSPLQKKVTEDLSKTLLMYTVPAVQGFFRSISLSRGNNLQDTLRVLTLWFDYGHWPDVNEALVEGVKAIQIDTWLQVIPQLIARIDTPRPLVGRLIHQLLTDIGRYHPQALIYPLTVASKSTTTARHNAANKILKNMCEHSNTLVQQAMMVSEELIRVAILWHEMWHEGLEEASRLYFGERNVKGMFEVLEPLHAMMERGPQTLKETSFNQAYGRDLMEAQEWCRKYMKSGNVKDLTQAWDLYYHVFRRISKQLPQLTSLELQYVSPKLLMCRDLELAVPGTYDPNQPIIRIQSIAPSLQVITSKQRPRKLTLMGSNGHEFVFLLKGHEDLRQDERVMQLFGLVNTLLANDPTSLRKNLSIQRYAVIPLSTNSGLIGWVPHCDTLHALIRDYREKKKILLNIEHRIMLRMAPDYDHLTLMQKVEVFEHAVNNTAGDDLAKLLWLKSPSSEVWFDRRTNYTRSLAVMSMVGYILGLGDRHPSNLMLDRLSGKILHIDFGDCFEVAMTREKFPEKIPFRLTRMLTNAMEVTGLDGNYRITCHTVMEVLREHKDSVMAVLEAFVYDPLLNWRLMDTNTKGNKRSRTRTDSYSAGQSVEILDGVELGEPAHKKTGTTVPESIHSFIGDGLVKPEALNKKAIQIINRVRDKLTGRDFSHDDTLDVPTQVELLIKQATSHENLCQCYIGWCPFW"}, "CHK2(R145W) (h) (human)": {"target": "CHK2(R145W) (h) (human) (UniProt O96017)", "sequence (O96017 5-543 R145W limits assumed)": "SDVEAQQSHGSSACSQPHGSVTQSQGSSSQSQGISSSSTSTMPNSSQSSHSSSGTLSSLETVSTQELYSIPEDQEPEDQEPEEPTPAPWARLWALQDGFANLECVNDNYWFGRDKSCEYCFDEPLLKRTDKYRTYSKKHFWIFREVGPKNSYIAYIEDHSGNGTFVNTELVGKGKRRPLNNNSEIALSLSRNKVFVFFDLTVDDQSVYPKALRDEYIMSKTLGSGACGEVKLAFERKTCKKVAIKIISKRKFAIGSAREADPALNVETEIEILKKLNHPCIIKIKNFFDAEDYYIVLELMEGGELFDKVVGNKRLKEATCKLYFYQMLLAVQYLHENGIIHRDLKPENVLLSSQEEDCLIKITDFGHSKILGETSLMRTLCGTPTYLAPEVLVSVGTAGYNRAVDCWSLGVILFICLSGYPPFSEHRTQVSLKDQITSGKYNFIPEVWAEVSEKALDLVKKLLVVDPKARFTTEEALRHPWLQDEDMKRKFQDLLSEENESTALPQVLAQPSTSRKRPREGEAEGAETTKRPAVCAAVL"}, "JNK1α1 (h) (human)": {"target": "JNK1α1 (h) (human) (UniProt P45983)"}, "CDK5/p25 (h) (human)": {"target": "CDK5/p25 (h) (human) (UniProt Q00535)"}, "CK1δ (h) (human)": {"target": "CK1δ (h) (human) (UniProt P48730)"}, "MST3 (h) (human)": {"target": "MST3 (h) (human) (UniProt Q9Y6E0)"}, "MINK (h) (human)": {"target": "MINK (h) (human) (UniProt Q8N4C8)"}, "[1]": {"target": "CDK9/cyclin T1 (h) (human) (UniProt P50750)"}, "EphB1 (h) (human)": {"target": "EphB1 (h) (human) (UniProt P54762)", "sequence (P54762 564-984 limits assumed)": "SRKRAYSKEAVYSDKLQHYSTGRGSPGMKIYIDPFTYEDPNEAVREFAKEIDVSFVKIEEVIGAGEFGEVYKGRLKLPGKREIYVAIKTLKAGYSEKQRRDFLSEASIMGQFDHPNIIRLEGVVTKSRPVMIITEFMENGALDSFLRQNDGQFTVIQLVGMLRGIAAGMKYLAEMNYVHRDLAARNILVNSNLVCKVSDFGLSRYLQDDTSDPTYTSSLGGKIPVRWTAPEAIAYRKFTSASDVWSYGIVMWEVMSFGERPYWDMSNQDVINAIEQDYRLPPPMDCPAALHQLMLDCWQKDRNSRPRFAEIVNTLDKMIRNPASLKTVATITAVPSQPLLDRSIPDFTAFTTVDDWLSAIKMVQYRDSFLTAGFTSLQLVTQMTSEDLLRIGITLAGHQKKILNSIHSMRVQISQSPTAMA"}, "Flt4 (h) (human)": {"target": "Flt4 (h) (human) (UniProt P35916)", "sequence (P35916 800-1363 limits assumed)": "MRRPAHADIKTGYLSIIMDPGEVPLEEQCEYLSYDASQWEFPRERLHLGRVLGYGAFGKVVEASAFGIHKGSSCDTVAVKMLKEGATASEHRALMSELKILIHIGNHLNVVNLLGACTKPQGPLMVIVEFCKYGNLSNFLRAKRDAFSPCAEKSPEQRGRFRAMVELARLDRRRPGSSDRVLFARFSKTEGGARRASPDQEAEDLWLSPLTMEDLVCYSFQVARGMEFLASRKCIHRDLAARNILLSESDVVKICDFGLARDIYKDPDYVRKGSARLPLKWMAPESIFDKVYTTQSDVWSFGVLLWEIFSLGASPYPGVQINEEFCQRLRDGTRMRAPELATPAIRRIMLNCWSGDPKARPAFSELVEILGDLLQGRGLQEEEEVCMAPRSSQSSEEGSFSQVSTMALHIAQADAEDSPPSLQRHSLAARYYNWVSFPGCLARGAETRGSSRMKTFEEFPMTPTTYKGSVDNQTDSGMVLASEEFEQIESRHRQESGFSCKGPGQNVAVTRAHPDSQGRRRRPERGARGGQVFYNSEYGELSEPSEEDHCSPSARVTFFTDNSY"}, "STK33 (h) (human)": {"target": "STK33 (h) (human) (UniProt Q9BYT3)"}}}
{"substance": "MMI-0300 (peptide)", "values": [{"measurement": "% activity at 100 µM", "setting": "LKB1 (h) (human)", "value": 101, "unit": "%"}, {"measurement": "% activity at 100 µM", "setting": "Haspin (h) (human)", "value": 48, "unit": "%"}, {"measurement": "% activity at 100 µM", "setting": "PKD2 (h) (human)", "value": 33, "unit": "%"}, {"measurement": "% activity at 100 µM", "setting": "SAPK2a (h) (human)", "value": 90, "unit": "%"}, {"measurement": "% activity at 100 µM", "setting": "TBK1 (h) (human)", "value": 37, "unit": "%"}, {"measurement": "% activity at 100 µM", "setting": "mTOR (h) (human)", "value": 91, "unit": "%"}, {"measurement": "% activity at 100 µM", "setting": "CHK2(R145W) (h) (human)", "value": 33, "unit": "%"}, {"measurement": "% activity at 100 µM", "setting": "JNK1α1 (h) (human)", "value": 97, "unit": "%"}, {"measurement": "% activity at 100 µM", "setting": "CDK5/p25 (h) (human)", "value": 89, "unit": "%"}, {"measurement": "% activity at 100 µM", "setting": "CK1δ (h) (human)", "value": 92, "unit": "%"}, {"measurement": "% activity at 100 µM", "setting": "MST3 (h) (human)", "value": 45, "unit": "%"}, {"measurement": "% activity at 100 µM", "setting": "MINK (h) (human)", "value": 48, "unit": "%"}, {"measurement": "% activity at 100 µM", "setting": "[1]", "value": 91, "unit": "%"}, {"measurement": "% activity at 100 µM", "setting": "EphB1 (h) (human)", "value": 44, "unit": "%"}, {"measurement": "% activity at 100 µM", "setting": "Flt4 (h) (human)", "value": 83, "unit": "%"}, {"measurement": "% activity at 100 µM", "setting": "STK33 (h) (human)", "value": 45, "unit": "%"}]}
